Results on one molecule are retold here after patent publication US8981179B2, “Transgenic non-human animal and uses thereof” (Sanofi, priority 2009, dated 2015).

The target of this assay is T1, prokineticin 2 receptor (PROK2R) (Mus musculus, UniProt Q8K458).
T1 construct: endogenous in cells; host or cells: primary cortical neurons, E18, CreLuc mouse lines (187 and others)
Put plainly: Primary cortical neurons CreLuc luciferase assay, Gq modulation. Type of assay: cell-based. From the text: A general schematic of the workflow for the isolation and compound treatment of primary neuronal cells from the CreLuc model is depicted in FIG. 9. Cortices or other brain subregions are removed from embryos, usually embryonic (E) day 17 or 18, but also as early as E14. The individual neurons are then isolated and plated onto 96 well assay plates. Assays are run either in triplicate or quadruplicate. The assays are run from day 3 in culture up until day 7 or day 10 in culture depending on the expression levels of the target GPCR. Compounds are added to the plates then at a set timepoint, Bright Glo (Promega, Cat #E2610) is added to the plates and the assay is then run on a TopCount or other luminometer.
Primary cell cultures from the CreLuc mice may be used to screen compounds that are capable of modulating Gs coupled receptors. The PROK2R is Gq coupled, therefore, prokineticin 2 (PROK2) which is an agonist for the PROK2R was used to see whether CreLuc mice would be responsive to Gq modulation. […]
The effects of PROK2 peptide on luciferase expression in primary cortical neurons from different CreLuc lines was examined. […] Lines were selected based on earlier experiments which determined inducible luciferase levels in whole brain extracts (data not shown). […] BrightGlo was used for the assay and read on a TopCount. […]

T1 sequence (Q8K458 whole entry): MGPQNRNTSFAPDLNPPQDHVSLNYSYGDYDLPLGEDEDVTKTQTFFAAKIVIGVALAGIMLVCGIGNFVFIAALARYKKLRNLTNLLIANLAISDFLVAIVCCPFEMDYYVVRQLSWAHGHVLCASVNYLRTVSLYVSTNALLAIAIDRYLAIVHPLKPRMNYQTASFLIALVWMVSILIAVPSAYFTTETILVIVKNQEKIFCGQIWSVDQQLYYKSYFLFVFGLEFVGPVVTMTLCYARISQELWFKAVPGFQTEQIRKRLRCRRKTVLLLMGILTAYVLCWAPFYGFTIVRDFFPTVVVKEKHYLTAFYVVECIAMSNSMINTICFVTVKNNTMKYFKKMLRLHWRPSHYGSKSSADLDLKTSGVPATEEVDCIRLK

B1: PROK2: prokineticin 2 peptide (Peprotech), agonist for the PROK2R (protein)
chain: AVITGACDKDSQCGGGMCCAVSIWVKSIRICTPMGKLGDSCHPLTRKVPFFGRRMHHTCPCLPGLACLRTSFNRFICLAQK
On to B1, for which the “luciferase levels vs media only control” value (cortical neurons line 187, day 3, 1 nM and 100 nM, 4 hours and 8 hours) is “Highly significant increases”. Moreover, the “luciferase levels in cortical neurons from different CreLuc lines” value (lines 219 and 175, 1 nM and 100 nM, 4 hours and 24 hours) is given as “Statistically significant increases”.
